From paper PMC2683942, “Unc5B Interacts with FLRT3 and Rnd1 to Modulate Cell Adhesion in Xenopus Embryos” (PLoS ONE, 2009)

B1: soluble alkaline phosphatase-FLRT3 ectodomain fusion protein (AP-FLRT3ΔTM) (domain or fragment, Xenopus, UniProt Q70AK3 29-527, looked up)
chain: KPCPSVCRCDAGFIYCNDRDLTSIPSGIPDDATTLYLQNNQINNAGIPSDLKGLDKVERIYLYRNSLDEFPINLPKNVKELHLQENNIRTITYDALLQIPFIEELHLDDNSVSAVSIEDGAFRDNIFLRLLFLSRNHLSTIPWGLPKTIEELRLDDNRISTISEISLQDLTNLKRLVLDGNLLNNNGLGERVFMNLINLTELSLVRNSLTSPPANLPGTSLRKLYLQENHMNYVPPNSFADLTQLYRLDMSNNNLTALPQGIFDDLDNLTQLFLRNNPWYCGCKMKWVRDWLQSLPSKVNVRGLMCQAPERVRGMTIKDLNKELFDCKDRIGSNTIHVTTTMLNSLLPAQGQWPVPVTKQPEIRPPDINKIFRTTPIPVKKIITIQVKSITTETIYISWKVALPMTALRLSWQLGHSPVFGSITETIVTGDRAEYLLTALEPESPYRICMVPMETGNIYLSDETPVCIETETAPLKMYNPTTTLNREQEKEPYKNSSLP
notes: FLRT3, Xenopus, ectodomain (ΔTM); also called AP-tagged FLRT3ΔTM; source: conditioned medium, concentrated

Tests used:
[1] = target: T1, Xenopus Unc5B (Xenopus, UniProt Q8JGT4 31-943); assay: equilibrium binding of an alkaline phosphatase fusion protein to transfected cells, binding curves and Scatchard analysis; different amounts of concentrated AP-FLRT3ΔTM conditioned medium on transfected cells, 1 h at RT; washed with PBS containing 0.2 M NaCl; cells lysed; AP activity read at 405 nm, normalised to cell number; conditions: partners not purified
T1 construct: Netrin receptor Unc5B, Xenopus; Constructs are in Text S1; source: HEK293T, transfected, on cells
T1 sequence (Q8JGT4 31-943): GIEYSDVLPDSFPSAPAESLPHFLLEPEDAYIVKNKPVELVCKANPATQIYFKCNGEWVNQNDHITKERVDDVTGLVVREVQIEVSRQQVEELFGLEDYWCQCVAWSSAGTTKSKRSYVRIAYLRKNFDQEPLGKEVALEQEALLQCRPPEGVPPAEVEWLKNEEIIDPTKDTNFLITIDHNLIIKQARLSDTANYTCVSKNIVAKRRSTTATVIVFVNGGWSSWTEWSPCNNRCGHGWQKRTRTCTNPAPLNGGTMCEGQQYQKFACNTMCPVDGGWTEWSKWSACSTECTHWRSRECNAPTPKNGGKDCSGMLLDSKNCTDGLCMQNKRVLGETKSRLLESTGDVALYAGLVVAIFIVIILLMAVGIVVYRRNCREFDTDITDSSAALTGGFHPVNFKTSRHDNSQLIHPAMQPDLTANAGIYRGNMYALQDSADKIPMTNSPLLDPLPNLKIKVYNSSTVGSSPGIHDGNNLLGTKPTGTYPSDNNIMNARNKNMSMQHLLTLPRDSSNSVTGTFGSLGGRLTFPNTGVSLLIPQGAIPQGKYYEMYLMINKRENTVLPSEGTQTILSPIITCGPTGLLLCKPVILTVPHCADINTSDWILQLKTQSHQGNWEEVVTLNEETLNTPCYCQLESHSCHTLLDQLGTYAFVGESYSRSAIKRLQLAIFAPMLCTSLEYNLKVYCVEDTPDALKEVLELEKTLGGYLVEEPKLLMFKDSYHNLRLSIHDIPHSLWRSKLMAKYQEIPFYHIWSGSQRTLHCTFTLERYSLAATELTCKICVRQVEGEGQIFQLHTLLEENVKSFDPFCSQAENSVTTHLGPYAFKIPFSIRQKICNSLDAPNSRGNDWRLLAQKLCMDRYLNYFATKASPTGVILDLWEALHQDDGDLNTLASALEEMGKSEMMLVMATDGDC

[2] = target: B1; assay: as above; conditions: partners not purified

| Binder | Kd [1] [nM] | Kd [2] [nM] |
| --- | --- | --- |
| B1 | 50 |  |
| Unc5D (splice variant of the mouse Unc5D gene) (receptor) ARGADGSEILPDSIPSAPGTLPHFIEEPEDAYIIKSNPIALRCKARPAMQIFFKCNGEWVHQNEHVSEESLDESSGLKVREVFINVTRQQVEDFHGPEDYWCQCVAWSHLGTSKSRKASVRIAYLRKNFEQDPQGREVPIEGMIVLHCRPPEGVPAAEVEWLKNEEPIDSEQDENIDTRADHNLIIRQARLSDSGNYTCMAANIVAKRRSLSATVVVYVNGGWSSWTEWSACNVRCGRGWQKRSRTCTNPAPLNGGAFCEGMSVQKITCTALCPVDGSWEVWSEWSVCSPECEHLRIRECTAPPPRNGGKFCEGLSQESENCTDGLCILDKKPLHEIKPQSIENASDIALYSGLGAAVVAVAVLVIGVTLYRRSHSDYGVDVIDSSALTGNSLLLNPAMQPDLTVSRTYSGPICLQDPLDKELMTESSLFNPLSDIKVKVQSSFMVSLGVSERAEYHGKNHSGTFPHGNNRGFSTIHPRNKTPYIQNLSSLPTRTELRTTGVFGHLGGRLVMPNTGVSLLIPHGAIPEENSWEIYMSINQGEPSLQSDGSEVLLSPEVTCGPPDMLVTTPFALTIPHCADVSSEHWNIHLKKRTQQGKWEEVMSVEDESTSCYCLLDPFACHVLLDSFGTYALTGEPITDCAVKQLKVAVFGCMSCNSLDYNLRVYCVDNTPCAFQEVISDERHQGGQLLEEPKLLHFKGNTFSLQVSVLDIPPFLWRIKPFTACQEVPFSRVWSSNRQPLHCAFSLERYTPTTTQLSCKICIRQLKGHEQILQVQTSILESERETITFFAQEDSTFPAQTGPKAFKIPYSIRQRICATFDTPNAKGKDWQMLAQKNSINRNLSYFATQSSPSAVILNLWEARHQQDGDLDSLACALEEIGRTHTKLSNITEPQIDDADFNYSRQNGL |  | 26 |
